Numbering of substitutions follows the chain as printed.
Columns and labels:
Assay in all cases: co-sedimentation; FtsZ or CTV mutant 5 μM with ZapD 1 or 5 μM in 50 mM K-MOPS pH 6.5, 50 mM KCl, 2.5 mM MgCl2, 3 μM BSA, 1 mM GTP, room temperature; TLA100.2, 80,000 rpm, 10 min; ZapD in the pellet by SDS-PAGE
Conditions in all cases: both partners purified
FtsZ(RQAR) (purified) = target: T1, FtsZ(RQAR) (purified) (E. coli, UniProt P0A9A6 1-383, CTV KQAD replaced by RQAR)
T1 construct: FtsZ of E. coli with the native CTV KQAD replaced by RQAR (net-positive); pAM3, pET-21b(+); also called net-positive CTV mutant; source: E. coli C41(DE3), purified (25% saturated ammonium sulfate cut)
T1 sequence (looked up): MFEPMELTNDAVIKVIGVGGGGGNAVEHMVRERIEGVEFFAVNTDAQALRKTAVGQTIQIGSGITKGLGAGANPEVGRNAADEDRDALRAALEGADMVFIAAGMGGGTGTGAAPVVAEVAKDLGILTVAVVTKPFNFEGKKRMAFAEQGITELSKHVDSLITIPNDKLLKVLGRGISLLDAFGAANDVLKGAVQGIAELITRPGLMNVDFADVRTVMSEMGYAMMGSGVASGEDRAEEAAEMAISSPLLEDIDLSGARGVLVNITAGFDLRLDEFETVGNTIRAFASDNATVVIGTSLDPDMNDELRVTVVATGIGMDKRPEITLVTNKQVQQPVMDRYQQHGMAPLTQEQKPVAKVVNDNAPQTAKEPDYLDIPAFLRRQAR

FtsZ(DQAK) (purified) = target: T2, FtsZ(DQAK) (purified) (E. coli, UniProt P0A9A6 1-383, CTV KQAD replaced by DQAK)
T2 construct: FtsZ of E. coli with the native CTV KQAD replaced by DQAK (net-neutral); pKHH9, pET-21b(+); also called net-neutral CTV mutant; source: E. coli C41(DE3), purified (25% saturated ammonium sulfate cut)
T2 sequence (looked up): T1 sequence (looked up) with R380D, R383K

FtsZ(KQAK) (purified) = target: T3, FtsZ(KQAK) (purified) (E. coli, UniProt P0A9A6 1-383, CTV KQAD replaced by KQAK)
T3 construct: FtsZ of E. coli with the native CTV KQAD replaced by KQAK (net-positive); pKHH8, pET-21b(+); also called net-positive CTV mutant; source: E. coli C41(DE3), purified (25% saturated ammonium sulfate cut)
T3 sequence (looked up): T1 sequence (looked up) with R380K, R383K

FtsZ(QQQQ) (purified) = target: T4, FtsZ(QQQQ) (purified) (E. coli, UniProt P0A9A6 1-383, CTV KQAD replaced by QQQQ)
T4 construct: FtsZ of E. coli with the native CTV KQAD replaced by QQQQ (net-neutral); pLT1, pET-21b(+); also called net-neutral CTV mutant; source: E. coli C41(DE3), purified (25% saturated ammonium sulfate cut)
T4 sequence (looked up): T1 sequence (looked up) with R380Q, A382Q, R383Q

binding result (FtsZ(RQAR) (purified)): binds
binding result (FtsZ(DQAK) (purified)): binds
binding result (FtsZ(KQAK) (purified)): binds
binding result (FtsZ(QQQQ) (purified)): binds
B1: ZapD (purified) (natural protein, E. coli, UniProt P36680 1-247, looked up)
chain: MQTQVLFEHPLNEKMRTWLRIEFLIQQLTVNLPIVDHAGALHFFRNVSELLDVFERGEVRTELLKELDRQQRKLQTWIGVPGVDQSRIEALIQQLKAAGSVLISAPRIGQFLREDRLIALVRQRLSIPGGCCSFDLPTLHIWLHLPQAQRDSQVETWIASLNPLTQALTMVLDLIRQSAPFRKQTSLNGFYQDNGGDADLLRLNLSLDSQLYPQISGHKSRFAIRFMPLDTENGQVPERLDFELACC
notes: ZapD, Z-ring stabilizer of E. coli; also called purified ZapD; pET28b-His10-Smt3-ZapD
